Measurements: PMC9817231
Like-named read-outs stand apart in the source and are kept apart here.

B1: SL1 (structured_RNA)
RNA: GGGUUUAUACCUUCCCAGGUAACAAACCC
B2: SL1-4 (structured_RNA)
RNA: GGUUUAUACCUUCCCAGGUAACAAACCAACCAACUUUCGAUCUCUUGUAGAUCUGUUCUCUAAACGAACUUUAAAAUCUGUGUGGCUGUCACUCGGCUGCAUGCUUAGUGCACUCACGC

What was measured:
[1] = biological target: T1, FL-Nsp1 (non-structural protein 1) (SARS-CoV-2, UniProt P0DTD1 1-180); assay: NMR
[2] = biological target: T1, FL-Nsp1 (non-structural protein 1); assay: NMR; remark: listed apart in the source

Binder | binding result [1] | binding result [2]
B1 | no binding | 
B2 |  | no binding
